Legend:
rat promyostatin [1] = molecular target: T1, rat promyostatin (rat, UniProt O35312 25-376); test: cell-based or functional assay
[2] = molecular target: T2, cynomolgus monkey promyostatin (cynomolgus monkey, UniProt Q95J86 19-375); test: cell-based or functional assay
rat promyostatin [3] = molecular target: T1, rat promyostatin; test: biolayer interferometry (ForteBio Octet QKe), apitegromab on human Fc capture tips, promyostatin in solution, 1:1 global fit, single concentration
Experimental: (§1) All baseline steps, loading of biotinylated antigens, and antibody association and dissociation steps were performed in 1× kinetics buffer containing PBS pH 74 with 0.002% Tween 20 and 0.01% BSA. Association proceeded for 300 seconds and dissociations were then performed in 1× kinetics buffer for at least 600 seconds. Data analysis was performed on FortèBio Data Analysis software version 8.2. A 1:1 global fitting model considering both association and dissociation was then utilized for the single concentration KD determination for each antigen antibody/construct pair.

[4] = molecular target: T2, cynomolgus monkey promyostatin; test: as above
Experimental: as §1

IC50 of inhibition of proteolytic activation of promyostatin (SMAD-responsive luciferase reporter cells) (rat promyostatin [1]): 153 nM
IC50 of inhibition of proteolytic activation of promyostatin (SMAD-responsive luciferase reporter cells) [2]: 584 nM
Kd (rat promyostatin [3]): 2 nM
Kd [4]: 4.86 nM
B1: Apitegromab (antibody, human IgG4 S228P, lambda, V domains shown)
VH: QVQLVESGGGVVQPGRSLRLSCAASGFTFSSYGMHWVRQAPGKGLEWVAVISYDGSNKYYADSVKGRFTISRDNSKNTLYLQMNSLRAEDTAVYYCARDLLVRFLEWSHYYGMDVWGQGTTVTVSS
VL: not shown
notes: Fully human monoclonal IgG4/lambda; also called SRK-015; anti-pro/latent myostatin antibody

From patent US20240002490A1 (SCHOLAR ROCK, published 2024)
